We go through two substances from patent publication US20180333502A1.

By EC50 is commonly meant the midpoint of the concentration-response curve. Low values mean greater potency, high ones weaker potency.

The assay addresses activated human CD4 T cells (GITR) (human) (UniProt Q9Y5U5). The assay is described as follows: FACS binding to activated human CD4 T cells; isotype control.

activated human CD4 T cells (GITR) (human), sequence (Q9Y5U5 26-241): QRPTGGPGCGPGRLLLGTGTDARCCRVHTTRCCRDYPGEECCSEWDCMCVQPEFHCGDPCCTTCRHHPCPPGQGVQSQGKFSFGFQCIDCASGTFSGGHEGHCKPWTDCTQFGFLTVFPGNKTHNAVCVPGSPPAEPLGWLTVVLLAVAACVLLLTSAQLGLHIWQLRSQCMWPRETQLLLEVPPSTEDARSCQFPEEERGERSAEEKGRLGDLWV

Turning to unrelated hIgG1, the EC50 is 132 nM.
Consider unrelated hIgG2, for which the EC50 was 6.72 nM.
